Data published in patent US20120115870A1, “CONTROL OF INTRAOCULAR PRESSURE USING ALK5 MODULATION AGENTS” (ALCON RESEARCH, LTD., priority 2005, published 2012).

Experiments:
[1] = system: GTM-3 transformed human TM cells; test: Pro-collagen type I C-peptide (PIP) in human TM cell cultures, ELISA (FIG. 4); assay type: cell-based; settings: 24 h
Procedure: For this experiment, cultured transformed GTM-3 cells (Pang et al., Curr Eye Res., 1994; Vol. 13:51-63) were grown in a growth medium consisting of Dulbecco's modified Eagle's medium with Glutamax I (Gibco/Invitrogen, Grand Island, N.Y.) supplemented with 10% fetal bovine serum (Hyclone, Logan, Utah) and 50 μg/mL gentamicin (Gibco/Invitrogen). For assay, cultures were enzymatically-dissociated (TrypLE Express; Gibco/Invitrogen) then seeded into 24-well plates (Corning Costar, Acton, Mass.) and allowed to grow until monolayers reached approximately 90-95% confluence. Culture medium was then replaced with 0.25 mL serum- and antibiotic-free medium containing the appropriate test compound(s). Cells were incubated 24 h, at 5% CO2 and 37° C. Aliquots of culture supernatants were then assayed using an ELISA kit for procollagen Type I C-peptide (TaKaRa Bio, Shiga, Japan).
Collagens are synthesized as pro-collagens, most of which contain additional peptide sequences called “propeptides”. Propeptides are located at both the N- and C-terminal ends of the molecules. These propeptides serve to facilitate formation of the mature collagen's triple helical structure from pro-collagens within the endoplasmic reticulum. […]

[2] = system: TGF-β2-treated perfused human anterior segment model; test: Perfusate fibronectin in TGF-β2-treated perfused human anterior segment model (FIG. 2); settings: human anterior segments treated with TGF-β2 and compound vs TGF-β2 only
Procedure: Human ocular perfusion organ culture was performed as described in available literature. [Tschumper et al., Curr Eye Res., 1990; Vol. 9:363-369; Clark et al., Invest Ophthalmol Vis Sci., 1995; Vol. 36:478-489; Pang et al., J Glaucoma, 2000; Vol. 9:468-479; Pang et al., Invest Ophthalmol Vis Sci., 2003; Vol. 44:3502-3510]. Briefly, anterior segments were dissected and mounted into custom Plexiglas culture chambers, then perfused with serum-free Dulbecco's modified Eagle's medium. IOP was monitored every 5 seconds and averaged each hour. Perfused tissue was allowed to equilibrate at 37° C. and 5% CO2 until a stable baseline IOP was achieved, typically 2-4 days; tissues with unstable IOP were discarded. Stable tissues were then further perfused with media containing the test compound(s) as indicated and changes in IOP were recorded. Eluate samples were collected daily for ELISA analysis of fibronectin and PAI-1 content. Tissues were fixed and evaluated for viability/morphology by light and electron microscopy at termination of each study. Data from unacceptable tissues were excluded from results. Criteria for “unacceptable” tissues included findings such as excess debris in the TM region, denudation of TM beams, loss of TM and/or Schlemm's canal cells, and breaks or collapse of Schlemm's canal. […]

[3] = system: GTM-3 transformed human TM cells; test: TGF-β2-mediated fibronectin and PAI-1 in human TM cell culture supernatants, ELISA (FIG. 3); assay type: cell-based; settings: human TM cell cultures, 24 h
Procedure: (§1) Generation and characterization of the GTM-3 transformed cell line has been previously described (Pang et al., Curr Eye Res., 1994; Vol. 13:51-63). Briefly, maintenance growth medium consisted of Dulbecco's modified Eagle's medium with Glutamax I (Gibco/BRL, Grand Island, N.Y.) supplemented with 10% fetal bovine serum (Hyclone, Logan, Utah) and 50 μg/mL gentamicin (Gibco/BRL). For assay, cultures were trypsinized and seeded into 24-well plates (Corning Costar, Acton, Mass.) and allowed to grow until monolayers reached approximately 90% confluence. Culture medium was then replaced with 0.25 mL serum- and antibiotic-free medium containing the appropriate test compound(s). Cells were incubated 24 h, at 5% CO2 and 37° C. Aliquots of culture supernatants were then assayed for fibronectin and/or PAI-1 content by ELISA.

TGF-β Type II receptors = TGF-β Type II receptors (Homo sapiens, UniProt P37173); settings: Brit J Pharmacol. 2005; 145:166-177; read-out: IC50, phosphorylation of TGF-β Type II receptors; cited from earlier work
TGF-β Type II receptors, sequence (P37173 23-567): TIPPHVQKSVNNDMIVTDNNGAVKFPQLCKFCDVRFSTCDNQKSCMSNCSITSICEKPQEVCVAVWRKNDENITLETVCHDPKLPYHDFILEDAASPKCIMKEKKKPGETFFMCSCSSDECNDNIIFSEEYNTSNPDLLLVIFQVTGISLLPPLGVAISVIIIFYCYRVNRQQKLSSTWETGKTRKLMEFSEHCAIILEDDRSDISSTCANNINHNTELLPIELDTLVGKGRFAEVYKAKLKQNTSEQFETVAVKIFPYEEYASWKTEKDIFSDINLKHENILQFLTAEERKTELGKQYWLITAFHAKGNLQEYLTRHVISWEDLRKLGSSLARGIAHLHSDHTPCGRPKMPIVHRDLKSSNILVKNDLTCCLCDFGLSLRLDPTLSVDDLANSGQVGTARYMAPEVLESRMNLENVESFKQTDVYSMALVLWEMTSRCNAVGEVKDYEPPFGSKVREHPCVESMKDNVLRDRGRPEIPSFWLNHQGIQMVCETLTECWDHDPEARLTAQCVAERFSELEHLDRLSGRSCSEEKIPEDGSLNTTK

p38 MAPK = p38 MAPK (Homo sapiens, UniProt Q16539); settings: Brit J Pharmacol. 2005; 145:166-177; read-out: IC50, phosphorylation of p38 MAPK; cited from earlier work
p38 MAPK, sequence (Q16539 whole entry): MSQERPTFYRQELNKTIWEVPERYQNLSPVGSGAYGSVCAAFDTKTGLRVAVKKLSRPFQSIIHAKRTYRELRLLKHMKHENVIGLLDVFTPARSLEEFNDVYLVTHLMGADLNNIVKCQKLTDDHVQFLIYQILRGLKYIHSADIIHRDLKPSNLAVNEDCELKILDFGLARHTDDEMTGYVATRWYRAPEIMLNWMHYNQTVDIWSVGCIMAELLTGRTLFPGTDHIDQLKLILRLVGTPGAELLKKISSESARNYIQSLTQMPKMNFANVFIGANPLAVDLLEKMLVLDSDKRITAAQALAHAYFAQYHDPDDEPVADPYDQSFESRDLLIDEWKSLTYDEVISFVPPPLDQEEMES

ALK5 = molecular target: T1, ALK5 (Homo sapiens, UniProt P36897); settings: Brit J Pharmacol. 2005; 145:166-177; read-out: IC50, inhibition of phosphorylation of ALK5; cited from earlier work
T1 sequence (P36897 34-503): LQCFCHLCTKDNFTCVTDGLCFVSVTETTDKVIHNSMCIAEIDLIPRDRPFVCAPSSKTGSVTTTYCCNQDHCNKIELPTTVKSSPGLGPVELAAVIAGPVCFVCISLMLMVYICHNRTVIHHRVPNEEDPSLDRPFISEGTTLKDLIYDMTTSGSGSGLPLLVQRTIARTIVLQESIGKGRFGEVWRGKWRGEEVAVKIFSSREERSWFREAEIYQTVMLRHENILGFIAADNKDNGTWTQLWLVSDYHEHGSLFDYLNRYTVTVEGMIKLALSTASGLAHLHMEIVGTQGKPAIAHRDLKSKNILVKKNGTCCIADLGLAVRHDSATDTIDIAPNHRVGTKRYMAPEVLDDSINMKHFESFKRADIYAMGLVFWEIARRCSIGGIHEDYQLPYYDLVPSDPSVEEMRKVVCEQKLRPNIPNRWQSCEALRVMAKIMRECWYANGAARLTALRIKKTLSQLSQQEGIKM

[4] = system: perfused human anterior segment model; test: Perfused human anterior segment model, IOP (FIG. 1); settings: TGF-β2 infused at 5 ng/mL
Procedure: FIG. 1 is a graph showing the effect of infused TGF-β2 on a perfused human anterior segment model. All donor eyes used in this model were used according to the provisions of the Declaration of Helsinki for research involving human tissue, and were used within 24 hours post-mortem. No donors were known to have a history of glaucoma or other ocular disorder.
Human ocular perfusion organ culture was performed as described in available literature. [Tschumper et al., Curr Eye Res., 1990; Vol. 9:363-369; Clark et al., Invest Ophthalmol Vis Sci., 1995; Vol. 36:478-489; Pang et al., J Glaucoma, 2000; Vol. 9:468-479; Pang et al., Invest Ophthalmol Vis Sci., 2003; Vol. 44:3502-3510]. Briefly, anterior segments were dissected and mounted into custom Plexiglas culture chambers, then perfused with serum-free Dulbecco's modified Eagle's medium. IOP was monitored every 5 seconds and averaged each hour. Perfused tissue was allowed to equilibrate at 37° C. and 5% CO2 until a stable baseline IOP was achieved, typically 2-4 days; tissues with unstable IOP were discarded. Stable tissues were then further perfused with media containing the test compound(s) as indicated and changes in IOP were recorded. Eluate samples were collected daily for ELISA analysis of fibronectin and PAI-1 content. Tissues were fixed and evaluated for viability/morphology by light and electron microscopy at termination of each study. […]

GTM29-01 = test: Effect of TGF-β2 on HTM cell secretion of fibronectin and PAI-1; assay type: cell-based, human; settings: 24 hours
Procedure: as §1
(§2) TABLE 1, shown below, summarizes the results of a study measuring the effect of TGF-β2 on ECM-related protein levels (fibronectin, PAI-1) in cultured TM cells of various strains. TGF-β2 was present in the cultures at a concentration of 5 ng/mL, and protein levels (mean±s.e.m.) were measured after 24 hours.

GTM730-03 = test: as above; assay type: cell-based, human; settings: 24 hours
Procedure: as §1, §2

GTM686-03 = test: as above; assay type: cell-based, human; settings: 24 hours
Procedure: as §1, §2

NTM25-91 = test: as above; assay type: cell-based, human; settings: 24 hours
Procedure: as §1, §2

NTM875-03 = test: as above; assay type: cell-based, human; settings: 24 hours
Procedure: as §1, §2

NTM974-03 = test: as above; assay type: cell-based, human; settings: 24 hours
Procedure: as §1, §2

GTM-3 = test: as above; assay type: cell-based, human; settings: 24 hours
Procedure: as §1, §2

SGTM2697 = test: as above; assay type: cell-based, human; settings: 24 hours
Procedure: as §1, §2

NTM35 = test: as above; assay type: cell-based, human; settings: 24 hours
Procedure: as §1, §2

SGTM1233-99 = test: as above; assay type: cell-based, human; settings: 24 hours
Procedure: as §1, §2

NTM553-02 = test: as above; assay type: cell-based, human; settings: 24 hours
Procedure: as §1, §2

Molecule: NC(=O)c1ccc(-c2nc(-c3ccc4c(c3)OCO4)c(-c3ccccn3)[nH]2)cc1 [Compound 1]
- TGF-β2-dependent PIP elevation ([1]; cultures treated with both TGF-β2 and compound): eliminated
- TGF-β2-mediated increase in perfusate fibronectin content [2]: completely antagonized
- Inhibition of TGF-β2-mediated increase in PAI-1 content in supernatants [3]: dose-dependent inhibition
- Inhibition of TGF-β2-mediated increase in fibronectin content in supernatants [3]: dose-dependent inhibition

Molecule: c1ccc(-c2n[nH]cc2-c2ccnc3ccccc23)nc1 [Compound 2]
- Inhibition of TGF-β2-mediated increase in PAI-1 content in supernatants [3]: dose-dependent inhibition
- Inhibition of TGF-β2-mediated increase in fibronectin content in supernatants [3]: dose-dependent inhibition

Molecule: c1ccc(-c2cc(-c3cn[nH]c3-c3ccccn3)ccn2)cc1 [GW-6604]
- IC50 (TGF-β Type II receptors): 10 µM
- IC50 (p38 MAPK): 9.5 µM
- IC50 (ALK5): ~140 nM

B1: TGF-β2: transforming growth factor-beta isoform 2, a cytokine acting on ALK5 (Type 1 TGF-β receptor) (protein, UniProt P61812 303-414, looked up)
Transforming growth factor …: ALDAAYCFRNVQDNCCLRPLYIDFKRDLGWKWIHEPKGYNANFCAGACPYLWSSDTQHSRVLSLYNTINPEASASPCCVSQDLEPLTILYYIGKTPKIEQLSNMIVKSCKCS
- IOP relative to control ([4]; after 72 hours): almost double
- IOP compared to control ([4]; within 24 hours): elevated IOP
- PIP levels compared to vehicle ([1]; TGF-β2-treated cultures, both study replicates): greatly elevated
- Fibronectin Fold Increase (GTM29-01; TGF-β2 5 ng/mL vs control): 9.4
- PAI-1 Fold Increase (GTM29-01; TGF-β2 5 ng/mL vs control): 3.9
- Fibronectin (GTM29-01; TGF-β2 5 ng/mL, mean±s.e.m.): 9.4 ± 2.6 μg/well
- PAI-1 (GTM29-01; TGF-β2 5 ng/mL, mean±s.e.m.): 260.5 ± 13.6 ng/well
- Fibronectin Fold Increase (GTM730-03; TGF-β2 5 ng/mL vs control): 32.8
- PAI-1 Fold Increase (GTM730-03; TGF-β2 5 ng/mL vs control): 2.2
- Fibronectin (GTM730-03; TGF-β2 5 ng/mL, mean±s.e.m.): 26.2 ± 1.6 μg/well
- PAI-1 (GTM730-03; TGF-β2 5 ng/mL, mean±s.e.m.): 268.8 ± 3.9 ng/well
- Fibronectin Fold Increase (GTM686-03; TGF-β2 5 ng/mL vs control): 126
- PAI-1 Fold Increase (GTM686-03; TGF-β2 5 ng/mL vs control): 2.5
- Fibronectin (GTM686-03; TGF-β2 5 ng/mL, mean±s.e.m.): 25.2 ± 9.6 μg/well
- PAI-1 (GTM686-03; TGF-β2 5 ng/mL, mean±s.e.m.): 258.3 ± 28.1 ng/well
- Fibronectin Fold Increase (NTM25-91; TGF-β2 5 ng/mL vs control): 6.2
- Fibronectin (NTM25-91; TGF-β2 5 ng/mL, mean±s.e.m.): 19.3 ± 1.5 μg/well
- Fibronectin Fold Increase (NTM875-03; TGF-β2 5 ng/mL vs control): 19.2
- PAI-1 Fold Increase (NTM875-03; TGF-β2 5 ng/mL vs control): 2.6
- Fibronectin (NTM875-03; TGF-β2 5 ng/mL, mean±s.e.m.): 9.6 ± 3.8 μg/well
- PAI-1 (NTM875-03; TGF-β2 5 ng/mL, mean±s.e.m.): 282.6 ± 11.6 ng/well
- Fibronectin Fold Increase (NTM974-03; TGF-β2 5 ng/mL vs control): 2.3
- PAI-1 Fold Increase (NTM974-03; TGF-β2 5 ng/mL vs control): 2.8
- Fibronectin (NTM974-03; TGF-β2 5 ng/mL, mean±s.e.m.): 8.9 ± 1.5 μg/well
- PAI-1 (NTM974-03; TGF-β2 5 ng/mL, mean±s.e.m.): 297.7 ± 23.1 ng/well
- Fibronectin Fold Increase (GTM-3; TGF-β2 5 ng/mL vs control): 5.4
- PAI-1 Fold Increase (GTM-3; TGF-β2 5 ng/mL vs control): 19.4
- Fibronectin (GTM-3; TGF-β2 5 ng/mL, mean±s.e.m.): 16.7 ± 1^ μg/well
- PAI-1 (GTM-3; TGF-β2 5 ng/mL, mean±s.e.m.): 266 ± 8 ng/well
- Fibronectin Fold Increase (SGTM2697; TGF-β2 5 ng/mL vs control): 2.4
- Fibronectin (SGTM2697; TGF-β2 5 ng/mL, mean±s.e.m.): 19.5 ± 2^ μg/well
- Fibronectin Fold Increase (NTM35; TGF-β2 5 ng/mL vs control): 4.1
- Fibronectin (NTM35; TGF-β2 5 ng/mL, mean±s.e.m.): 13 ± 2.7 μg/well
- Fibronectin Fold Increase (SGTM1233-99; TGF-β2 5 ng/mL vs control): 3.1
- PAI-1 Fold Increase (SGTM1233-99; TGF-β2 5 ng/mL vs control): 2.9
- Fibronectin (SGTM1233-99; TGF-β2 5 ng/mL, mean±s.e.m.): 12.2 ± 2.1 μg/well
- PAI-1 (SGTM1233-99; TGF-β2 5 ng/mL, mean±s.e.m.): 256.5 ± 35.4 ng/well
- Fibronectin Fold Increase (NTM553-02; TGF-β2 5 ng/mL vs control): 6.7
- PAI-1 Fold Increase (NTM553-02; TGF-β2 5 ng/mL vs control): 2.5
- Fibronectin (NTM553-02; TGF-β2 5 ng/mL, mean±s.e.m.): 10.1 ± 1.1 μg/well
- PAI-1 (NTM553-02; TGF-β2 5 ng/mL, mean±s.e.m.): 315.9 ± 9.5 ng/well
